B1: human MCM8–9 complex, wild type (FLAG-MCM8 with MBP-MCM9, co-expressed) (complex)
chain 1: MNGEYRGRGFGRGRFQSWKRGRGGGNFSGKWREREHRPDLSKTTGKRTSEQTPQFLLSTKTPQSMQSTLDRFIPYKGWKLYFSEVYSDSSPLIEKIQAFEKFFTRHIDLYDKDEIERKGSILVDFKELTEGGEVTNLIPDIATELRDAPEKTLACMGLAIHQVLTKDLERHAAELQAQEGLSNDGETMVNVPHIHARVYNYEPLTQLKNVRANYYGKYIALRGTVVRVSNIKPLCTKMAFLCAACGEIQSFPLPDGKYSLPTKCPVPVCRGRSFTALRSSPLTVTMDWQSIKIQELMSDDQREAGRIPRTIECELVHDLVDSCVPGDTVTITGIVKVSNAEEGSRNKNDKCMFLLYIEANSISNSKGQKTKSSEDGCKHGMLMEFSLKDLYAIQEIQAEENLFKLIVNSLCPVIFGHELVKAGLALALFGGSQKYADDKNRIPIRGDPHILVVGDPGLGKSQMLQAACNVAPRGVYVCGNTTTTSGLTVTLSKDSSSGDFALEAGALVLGDQGICGIDEFDKMGNQHQALLEAMEQQSISLAKAGVVCSLPARTSIIAAANPVGGHYNKAKTVSENLKMGSALLSRFDLVFILLDTPNEHHDHLLSEHVIAIRAGKQRTISSATVARMNSQDSNTSVLEVVSEKPLSERLKVVPGETIDPIPHQLLRKYIGYARQYVYPRLSTEAARVLQDFYLELRKQSQRLNSSPITTRQLESLIRLTEARARLELREEATKEDAEDIVEIMKYSMLGTYSDEFGNLDFERSQHGSGMSNRSTAKRFISALNNVAERTYNNIFQFHQLRQIAKELNIQVADFENFIGSLNDQGYLLKKGPKVYQLQTM
chain 2: not shown
notes: human MCM8; human MCM9; Written as the heterodimer (theoretical 266 kDa with tags; hexamer 798 kDa); in solution a mix of dimers, tetramers and hexamers; also called MCM8-MCM9; FLAG-MCM8-MBP-MCM9 heterodimer complex; source: Sf9 insect cells, co-expressed; hexamer-rich pool with a Superose 6 step) or captured from lysate on amylose resin and washed; not shown: FLAG, N-terminal, kept; MBP, …

Data set [1] deals with the molecule itself. Nature of the data set: negative staining transmission electron microscopy; human MCM8–9 at 220 nM; ring-like particles, heterodimers to hexameric rings.
Data set [2] deals with B1. Nature of the data set: pull-down; MBP-MCM9/FLAG-MCM8 from Sf9 lysate immobilised on amylose resin and washed (300 mM NaCl, 0.1% NP40); incubated with 1 μg purified HROB wild type or mutant in 50 mM Tris-HCl pH 7.5, 100 mM NaCl, 3 mM EDTA, BSA, 1 h at 4 °C; maltose elution, western blot. To be noted: both partners purified.

For the molecule B1, in data set [1], the binding result is reported as “binds”.

B2: HROB-L405D (natural protein, human, UniProt Q8N3J3-4 1-646, looked up)
chain: MACSLQKLFAVEEEFEDEDFLSAVEDAENRFTGSLPVNAGRLRPVSSRPQETVQAQSSRLLLLHPTAPSEALGLPDLDLCLPASSTPSADSRPSCIGAAPLRPVSTSSSWIGNQRRVTVTEVLREPARPQSSALHPLLTFESQQQQVGGFEGPEQDEFDKVLASMELEEPGMELECGVSSEAIPILPAQQREGSVLAKKARVVDLSGSCQKGPVPAIHKAGIMSAQDESLDPVIQCRTPRPPLRPGAVGHLPVPTALTVPTQQLHWEVCPQRSPVQALQPLQAARGTIQSSPQNRFPCQPFQSPSSWLSGKAHLPRPRTPNSSCSTPSRTSSGLFPRIPLQPQAPVSSIGSPVGTPKGPQGALQTPIVTNHLVQLVTAASRTPQQPTHPSTRAKTRRFPGPAGIDPHQQSGRSLEDIMVSAPQTPTHGALAKFQTEIVASSQASVEEDFGRGPWLTMKSTLGLDERDPSCFLCTYSIVMVLRKAALKQLPRNKVPNMAVMIKSLTRSTMDASVVFKDPTGEMQGTVHRLLLETCQNELKPGSVLLLKQIGVFSPSLRNHYLNVTPNNLVHIYSPDSGDGSFLKPSQPFPKDSGSFQHDVAAKPEEGFRTAQNLEAEASPEEELPEADDLDGLLSELPEDFFCGTSS
notes: human HROB as in m1 (closest to isoform 4, lacks Q-484, T126P) with L405D in the disordered region that contacts MCM8
As for B2, the binding result in data set [2] is given as “binds”.
